Results on 41 sequences are retold here after the nanobody polyreactivity screen of Harvey et al. (2022).

This data set in a line: yeast display, Sf9 membrane polyspecificity reagent, FACS + sequencing; frameworks hold sequencing errors. In short, it runs like this: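 Polyreactivity labels are assigned by the sorting gate from which each nanobody was recovered. The gates were low and high (top ~1%), set on anti-HA fluorescence for expression and streptavidin fluorescence for reagent binding. Before sorting, galactose-induced (36–48 hours) yeast display cells were stained for 1 hour at 4 °C with 10% biotinylated, detergent-solubilized Sf9 membrane reagent.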
Turning to “QLLLQESGRGLVQAGVSLRLSCAASGSIFLVYTIGCYRKAPLKEREFVAGIPLGTTTYNADSVKGRFTISRDNVKNTVYLQINSLKPEDTSVYYCAVAVGHYTDIWDWGQGTQVTMSS”, the “polyreactivity (PSR sort gate)” value is on record as “high polyreactivity”.
“QLLLVESGGGLVQAGGSLRLSCATSGIILRYYAMGWYRQAPGKERELVAAISGSGTRTYYADSVKGRFTISRDNAKNTVYLQMNSLKPEDTAVYYCAAAHPATRYDYWGQGTQVTVSS”: the “polyreactivity (PSR sort gate)” value is listed as “high polyreactivity”.
Consider “QLQHEESRGGLVQAGGSLRLSCAASGFIFPAYVMGWYRQAPGKERELVSAIDWSGDNTYYADSVKGRFTISRDNAKNTVYLQMNSLTPEDTAVYYCAKDNDYPTEWLSDYYYWGQGTQVTVSS”, for which the “polyreactivity (PSR sort gate)” value is given as “low polyreactivity”.
Turning to “QLQHVESGGGLVQAGGSLRLSCDASGYTFAWYAMGWYIQAPGKESELVAAISVSGGSTYYADSVKGRFTISRDNAKNTVYIQMNSLKPEDTAVYYCAARRYLGYSASYDYWGQGTQVTVSS”, the “polyreactivity (PSR sort gate)” value is listed as “high polyreactivity”.
In the case of “QLQHVESGGGLVQAGGSLRLTCAASGRTFGYYAMGWYRQAPGKERELVAAITSGGRTYYADSVKGRFTISRDNAKNTVYLQMNSLKPEDTAVYYCNAPPRWCSRVAWYEYWGQGTQVTVSS” it was “high polyreactivity”; in that of “QLQLEDSGGGLVQAGGILRLSFAASGFTFFYNAMRWYSQAPATEREFDAAISGRGGTTYYADSVKGRFTISRDNAKNTVYLQMNSVKPEDTAVYYCAARSVSTLRYTSGKLRYDYWGQGTQVTVSS”, “high polyreactivity”.
For “QLQLEDSGGGLVQAGGSLRISCAASARIVGGNTMGWYRQAPGKERELVAAITYRGGSTYYADSVKGRFTISRDNAKYTVYLQINSLKPVATAVYYCATAGYWGGDYWGQGTQVTVSS”, the “polyreactivity (PSR sort gate)” value was “low polyreactivity”.
In the case of “QLQLEESAGGLVQAGGSLRLSCAASGLTFPSYVMGRYRPAPGKEREFVAASTGSAGSTYYADSVKGRLTISRDNAKNTVYLQMISLKPEDSAVYYCAARVRYVNPKYYYWGHGTQVTVSS”, the “polyreactivity (PSR sort gate)” value is “high polyreactivity”.
“QLQLEESGGGLVQAGGSLRLSFAASGLTFGRNAMGWYRQATGKVREFVAAISKSGTSTYYADSVKGRFTISRDNAKNTVYLQMISLKPEDTAVYDCARTNYAKRWDFDYWGQGTQVTVSS”: the “polyreactivity (PSR sort gate)” value is recorded as “low polyreactivity”.
Turning to “QLQLGESGGGLVQAGGSLRLSCAASGRTFKDYAMGWYREAPGKERELVAAISWSGGDTYYADSVKGRFTISRDNAKNTVYLQMNSLKPEDTAVYYCNADPSGVFFYSLEFEYWGQGTQVTVSS”, the “polyreactivity (PSR sort gate)” value is “low polyreactivity”.
“QLQLHESGGGLVQAGGSLRLSCAASGTISYAGPMGWYRQAPGKEREFVAGIGVGSNTNYADSVKGRYTIIRDNAKNTVYLQMNSLKPEDTAVYYCAVGGYAPLGRPYWGQGTQVTVSS”: the “polyreactivity (PSR sort gate)” value is “low polyreactivity”.
Next, “QLQLLESGGGLDQPGGSLRLSSAASGRTFYRYVMGWYRQEPGKERELVAAIRSSGTTTYYADSVKGRFTISRDNAKNTVYIKMNCVIPEDTAVYYCARDSYRGYVYSLDYWGQGTQVTVSS”: “high polyreactivity”; “QLQLQESGGGLVQAGGSLRLSCAASGSISRMDYMAWYRQASGKERELVAAIDNGSTTYYADSVKGRLTISRDNAKYTVYLQMNSLKPEDSAVYFCAAVRGRGGTHAYWGQGTQVTVSG”: “low polyreactivity”.
For “QLQLQESIGGLVQAGGSLRMSCAASGTIFHFHIMGWYRQAPGKEREFVAAISYGTSTYYADSVKGRFTISRDNAKNTVYLHMNSQKPEDTAVYYCAVYDYLEVYCWYWGQGTQVTLSS”, the “polyreactivity (PSR sort gate)” value is given as “low polyreactivity”.
Regarding “QLQLVDSGGGLVQAGGSLRLSCAASGLIFPAYTMGWYRQAPGKQRELVAAISRSGGSTYYADSVKGRFTISRDNAKNTVYLQMNSLKTEDTAVYYCAAFYSGGYDYWGQGTQVTVSS”, the “polyreactivity (PSR sort gate)” value is given as “high polyreactivity”.
Turning to “QLQLVESGAGLVQAGGSLRLICAASGSIFKSYAMGWYRQAPGKQMEFVAAISWSGGSTYADSVKGRFTISRDNAKNTVYLQMNSLKPEDTAVYYCNKDDYWFLGFYYWGQGTQVTVSS”, the “polyreactivity (PSR sort gate)” value is recorded as “low polyreactivity”.
As for “QLQLVESGGALVQAGGSLRLSCAASGSTFTVNGMGWYRQAPGKERELVAAIDGGDGSTYYADSVKGRFTISRDNAKNTVYLQMNSLKPEDTAVYYCAADPPGFTQYGYWGQGTKVTVSS”, the “polyreactivity (PSR sort gate)” value is “low polyreactivity”.
With “QLQLVESGGGIVQAGGSLRLSCAPSGRIFFPNAMGSYRQAPGTERELVAGISIGGSTNYADSVKGRFTISRDNAKNTVYLQMNSLKPEDTAVYYWAARSPFGRWRDYWGQGTQVTVSS”, the “polyreactivity (PSR sort gate)” value was “low polyreactivity”.
Next, “QLQLVESGGGLDQAGGSLRLSCAASRYTMGWYRQAPGKEMELVPAITGGGSTNYADSVKGRFTISRDNAKNTVYLHMNSLKPEDTAVYYCAVDYAVSYAGWVLRYDYWGQGTQVTVSS”: “low polyreactivity”; “QLQLVESGGGLVQAGGRLRLSCAASGLTFQYNAMGWYRQAPGKERELVASINSGGSTDYADSVKGRFTISRDNAKNTVYLQMNRLKQEDTAVYYCASSGYWYSASYGYEYWGQGTQVTVSS”: “low polyreactivity”.
In the case of “QLQLVESGGGLVQAGGRLRLSCASSGSTFHSYVMGWYRPAPGKERELVAAITSRGGSTNYADSVKGRFTISRENAKNTVYLHMNSLKPEDTAVYYCAADGYWGWSYFRYDYLGQGTQVTVSS”, the “polyreactivity (PSR sort gate)” value is on record as “low polyreactivity”.
Next, “QLQLVESGGGLVQAGGRLRLSSAASGRTFRYYAMGWYRQAAGKERELVASITSGGRTYYADSVKGRFTISRDNAKNTVYLQMNSLKPEDTAVYYCAADRFGIGGKRGNDYWGQGTQVTVSS”: “high polyreactivity”; “QLQLVESGGGLVQAGGSLRISCAASGSTFGRNAMGWYRQAPGKERELVAVISKSGGSTYYADSVKGRFTISRDNAKNTVYLQMNSLKPEDTAVYYCAARYYSYWREYQHFDYWGQGTQVTVSS”: “high polyreactivity”; “QLQLVESGGGLVQAGGSLRLSCAASGFIDAYTMGWYRQAPGKERELVAAITWSGGRTYYADSVKGRFTISRDNAKNTVYIQRNSLKPEDNAVYYCAKDVTPYSPDEDYWGQGSQVTVSS”: “low polyreactivity”.
On to “QLQLVESGGGLVQAGGSLRLSCAASGFTFRWYVMGWYRQAPCKQRELVASIRSGGSTYYADSVKGRFTISRDNAKNTVYLQMNSLKPEDTAVYYCAARFGRDRYYYWGQGTQVTVSS”, for which the “polyreactivity (PSR sort gate)” value is “high polyreactivity”.
Turning to “QLQLVESGGGLVQAGGSLRLSCAASGFTFYAYAMGWYRQAPGKERELVAAINSGGGSRTYYADSVKGRFTISRDNAKNTVYLQMNCLKPEDTAVYYCAARVYGVDGYGYWGQGTEVTVSS”, the “polyreactivity (PSR sort gate)” value is given as “high polyreactivity”.
In the case of “QLQLVESGGGLVQAGGSLRLSCAASGGTFYSYEMGWYRQATVKEREFVAAITYGGGSTYYADSVKGRFTMSRDNAKNTDYLQMNSLKPEDTAVYYCYARRYGSRLGERYYYWGQGTQVTVSS” it was “high polyreactivity”; in that of “QLQLVESGGGLVQAGGSLRLSCAASGITFVHNAMGWYRQAPGKEREFVAAITSSGVSTYYADSVKVRFTISRDNAKNTVYLQMNSLKPEDTAVYYCAARLSTRHWFYYWGQGTQVTVSS”, “high polyreactivity”.
Turning to “QLQLVESGGGLVQAGGSLRLSCAASGLIFYDNMAWSRPAPAKEMELVAAISSSGGSTSYADSVKGRFSISRDNAKNTVYLQLISLKPEDTAVYYCAADSYPAYLGFVGFDYWGQGTQVTVSS”, the “polyreactivity (PSR sort gate)” value is reported as “low polyreactivity”.
Next, “QLQLVESGGGLVQAGGSLRLSCAASGLTFVDYAMGWYRQAPGKERELVAAITSSGGSITYYADSVKGRFTISRDNAKNTVYLQLNSLKPEDTAVYYCNADYGIYTDSFRGPDYESWGQGTQVTVSS”: “low polyreactivity”.
For the sequence “QLQLVESGGGLVQAGGSLRLSCAASGRIFKEYAMGWYRQAPGQERELVAAISWRGGSTYYADSVKGRFTISRDNAKNTVNLQMNSLKPEDTAVYYCARVVSRNTHPYYHWGQVTQVTVSS”, the “polyreactivity (PSR sort gate)” value was “low polyreactivity”.
As for “QLQLVESGGGLVQAGGSLRLSCAASGRIFKLNAMGWSRQAPGKERELVAAINSGTRTYYADSVKGRFTISRDNAKNTVYLQMNSLKPEDTAVYYCAAEGVWWYSRYDYWGQGTQVTVSS”, the “polyreactivity (PSR sort gate)” value is “high polyreactivity”.
Next, “QLQLVESGGGLVQAGGSLRLSCAASGRIFTYNALGWYRQAPGKERELVARIRRSGGTYYADSVKGRFTISRDNAKNTVYLQMNSLKPEDTAVYYCAVDLYIYYREYDYWGQGTQVTVSS”: “high polyreactivity”; “QLQLVESGGGLVQAGGSLRLSCAASGRIFVANTMGWYRQAPGKERELVAAISRGSTYYADSVKGRFTISRDNAKNTVYLQMKSLKPEDTAVYYCAVKLAYGYYYWGLGTQVTVSS”: “high polyreactivity”; “QLQLVESGGGLVQAGGSLRLSCAASGRIFVYYAMGWYRQAPGKERELVASISYSGASTYYADSVKGRFTISRDNAKNTVYFQMNSLKPEDTAVYYCNTDGDDFFHVIYDYWGQGTQVTVSS”: “low polyreactivity”.
Turning to “QLQLVESGGGLVQAGGSLRLSCAASGRNFVHNAMGWYRPAPGKEREFVAAISLRGGSTYYADSVKGRFTTSRDNAKNSVYLQMNSLKPEDTAVYYCAAVPAHFYGYDYWGQGTQVTVSS”, the “polyreactivity (PSR sort gate)” value was “low polyreactivity”.
Next, “QLQLVESGGGLVQAGGSLRLSCAASGRTFFRYVMGWYRQAPGKERELVAAISTRGGSTYYADSVKGRFTISRDNAKNTVYLQMNSLKPEDTAVYYCAARFKVRDYSYNYWGQGTQVTVSS”: “high polyreactivity”; “QLQLVESGGGLVQAGGSLRLSCAASGRTFQPYAMGWYRQAPGKERELVAAITSIGGSTFYADSVKGRFTISRDNAKNTVYLQMNSLKPEDTAVYYCAADPYTLYWYYWYGTSGFDYWGQGTQVTVSS”: “low polyreactivity”.
Regarding “QLQLVESGGGLVQAGGSLRLSCAASGRTFVRYAMGWYRQAPGKERELVAGISRSTGGTYYADSVKGRFTISRDNAKNTVYLQMNSLKPEDTAVYYCAAVYHKNGSGDYSWGQGTQVTVSS”, the “polyreactivity (PSR sort gate)” value is “high polyreactivity”.
In the case of “QLQLVESGGGLVQAGGSLRLSCAASGRTFWYYAMGWYRQAPGKESELVAGISRGGSTNYADSVKGRFTISRDNAKNTVYLQMKSLKPADTAVYYCIVGRWYSQGTTGVFKGGYWGQGTQVTVSS” it was “low polyreactivity”; in that of “QLQLVESGGGLVQAGGSLRLSCAASGSIFQYNAMGLYRQAPGKRELVAALNRSGGSTYYGDSVKGRFTISRDNAKNTVDLQMNSLKPEDTAVYYCAAGVFYFLKYTVSFINYYWRQGTQVTVSS”, “high polyreactivity”.
